Data as given in patent publication US20210107983A1 (Boehringer Ingelheim, published 2021).
Where a chain is given by its changes, count along the chain named. One block for each binder: values may come before it.

Columns and labels:
Cyno B7H6-His [1] = biological target: T1, Cyno B7H6-His (cynomolgus monkey); assay: ratio of SPR KDs cyno/human
T1 construct: also called CyB7H6; cyB7-H6
T1 chain: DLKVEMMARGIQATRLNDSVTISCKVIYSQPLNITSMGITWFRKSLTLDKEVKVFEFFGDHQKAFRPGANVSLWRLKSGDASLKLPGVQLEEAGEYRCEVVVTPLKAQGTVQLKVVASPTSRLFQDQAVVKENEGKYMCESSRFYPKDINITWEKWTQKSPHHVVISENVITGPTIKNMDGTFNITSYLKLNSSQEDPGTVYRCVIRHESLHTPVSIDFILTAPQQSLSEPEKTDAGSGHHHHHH
Method: (§1) About 700 RU of the B7H6/CD3 binding protein was captured on flow cell 2 of the Protein A/G surface for 60 s at a flow rate of 10 μL/min. The analytes HuB7H6, CyB7H6 and HuB7H1 were injected across both flow cells over captured B7H6/CD3 binding protein for 300 s at a flow rate of 30 μL/min with a dissociation of 1200 s. The concentrations of HuB7H6 and CyB7H6 were 0 nM, 6.25 nM, 12.5 nM, 25 nM, 50 nM and 100 nM. The concentrations of HuB7H1 were 0 nM and 1 μM. The surface was regenerated by injecting 10 mM glycine-HCl, pH 1.5 for 20 s at a flow rate of 30 μL/min across both flow cells.
(§2) The reference flow cell 1 (interactions with sensor surface) and blank (HBS-EP+ or 0 nM analyte) were subtracted from the raw data.
(§3) The B7H6/CD3 binding protein analyte was injected horizontally over the immobilized surface for 300 s at a flow rate of 30 μL/min with a dissociation of 600 s. The concentrations of the B7H6/CD3 binding protein used were 0 nM, 1.2 nM, 3.7 nM, 11.1 nM, 33.3 nM and 100 nM.

[2] = biological target: T2, trypsin inhibitor from Glycine max soybean (Glycine max (soybean)); assay: SPR, 1 µM binder over immobilized trypsin inhibitor
T2 construct: unrelated negatively charged protein, amine-coupled to the chip
Method: (§4) The experiment was performed on a Biacore® T200 SPR system (GE Healthcare Life Sciences). The dilution, surface preparation, and binding experiments were performed at 25° C. in 1×HBS-EP buffer prepared from 10×HBS-EP. The flow rate for both the immobilization protocol and binding experiment was at 5 μL/min.
(§5) To prepare the surface for the non-specific binding experiment, chicken egg white lysozyme and trypsin inhibitor from Glycine max soybean were coupled manually to a Biacore® series S CM5 sensor chip (GE Healthcare sciences) with the surface density of 3000-5000 RU using the amine coupling kit according to the manufacture instructions. Samples were prepared at 1 μM in 1×HBS-EP buffer. The samples were injected over activated surfaces with a 10 min association and 15 min dissociation. The data was collected using Biacore® T200 Control Software version 2.0.1 and analyzed using Biacore® T200 Evaluation Software version 3.0 (GE Healthcare Life Sciences).

Cyno B7H6-His [3] = biological target: T1, Cyno B7H6-His; assay: SPR, binder captured on Protein A/G, B7H6 analyte
Method: (§6) To determine the affinity of human and cyno B7H6 and human B7H1 to B7H6/CD3 binding proteins, the experiment was performed on a Biacore™ 8K instrument (GE Healthcare Life Sciences). Briefly, the B7H6/CD3 binding protein was captured via Protein A/G. The running buffer for this experiment and all serial dilutions were prepared in HBS-EP+. The CM5 sensor chip was activated with an equal mixture of EDC/NHS across both flow cells for 420 s at a flow rate of 10 μL/min and immobilized with recombinant Protein A/G (50 μg/ml in 10 mM NaOAc, pH 4.5) across all flow cells for 420 s at a flow rate of 10 μL/min resulting in about 2500 RU of Protein A/G on the surface. The sensor chip was deactivated with 1M ethanolamine-HCl across all flow cells for 420 s at a flow rate of 10 μL/min.
as §1, §2

Human B7H1 = biological target: T3, Human B7H1 (human, UniProt Q9NZQ7 20-239); assay: SPR, binder captured on Protein A/G, HuB7H1 analyte
T3 construct: also called HuB7H1; huB7-H1
Method: as §6, §1, §2

Human CD3 E+G HuFc-6xHis = biological target: T4, Human CD3 E+G HuFc-6xHis (human); assay: SPR, CD3E+G-hFc immobilized, binder analyte
T4 construct: also called HuCD3E+G-hFc; huCD3
Method: To determine the affinity of the B7H6/CD3 binding protein to human and cyno CD3E+G-hFc, the experiment was performed on a Bio-Rad ProteOn™ XPR36 instrument. Briefly, HuCD3E+G-hFc and CyCD3E+G were amine-coupled on a ProteOn™ GLM sensor chip (Bio-Rad) and the B7H6/CD3 binding protein was flowed over the immobilized surface. The running buffer for this experiment and all serial dilutions were prepared in HBS-EP+. The GLM sensor chip was normalized according to Bio-Rad's recommendations. The sensor chip was activated with an equal mixture of EDC/s-NHS in the horizontal direction for 300 s at a flow rate of 30 μL/min HuCD3E+G-hFc was immobilized in the vertical direction at 0.4 μg/mL, 0.2 μg/mL and 0.1 μg/mL in 10 mM acetate pH 4.5 to L1, L2 and L3, respectively, for 300 s at a flow rate of 30 μL/min resulting in about 100 RU of HuCD3E+G-hFc on L1, 40 RU of HuCD3E+G-hFc on L2 and 0 RU of HuCD3E+G-hFc on L3. CyCD3E+G-hFc was immobilized in the vertical direction at 0.4 μg/mL, 0.2 μg/mL and 0.1 μg/mL in 10 mM acetate pH 4.5 to L4, L5 and L6, respectively, for 300 s at a flow rate of 30 μL/min resulting in about 385 RU of […], 170 RU of CyCD3E+G-hFc on L5 and 50 RU of CyCD3E+G-hFc on L6. The sensor chip was deactivated with 1M ethanolamine-HCl in the horizontal direction for 300 s at a flow rate of 30 μL/min.
as §3
The interspot (interactions with sensor surface) and blank (HBS-EP+ or 0 nM analyte) were subtracted from the raw data.

[4] = biological target: T5, chicken egg white lysozyme (chicken, UniProt P00698 19-147); assay: SPR, 1 µM binder over immobilized lysozyme
T5 construct: unrelated positively charged protein, amine-coupled to the chip; also called Lysozyme (positive)
Method: as §4, §5

T3 sequence (Q9NZQ7 other isoform, or with tags, fused parts or gaps limits assumed): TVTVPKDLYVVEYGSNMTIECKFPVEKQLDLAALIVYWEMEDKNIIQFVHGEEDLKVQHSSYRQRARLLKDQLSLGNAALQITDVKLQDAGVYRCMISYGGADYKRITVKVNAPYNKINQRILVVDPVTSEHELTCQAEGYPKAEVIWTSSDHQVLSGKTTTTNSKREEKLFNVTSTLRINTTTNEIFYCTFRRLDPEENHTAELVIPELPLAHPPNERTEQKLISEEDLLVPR
T2 sequence (P01070 25-205): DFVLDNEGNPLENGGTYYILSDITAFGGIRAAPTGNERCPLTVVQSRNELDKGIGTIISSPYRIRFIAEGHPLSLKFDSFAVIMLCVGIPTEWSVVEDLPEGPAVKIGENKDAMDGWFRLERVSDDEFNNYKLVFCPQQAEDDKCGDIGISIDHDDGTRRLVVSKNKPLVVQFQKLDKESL
T5 sequence (P00698 19-147): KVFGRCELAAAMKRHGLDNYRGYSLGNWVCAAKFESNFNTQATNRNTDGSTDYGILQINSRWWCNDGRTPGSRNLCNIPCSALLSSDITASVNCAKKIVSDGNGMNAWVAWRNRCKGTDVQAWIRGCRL
T4 sequence (chain, as listed by the source limits assumed): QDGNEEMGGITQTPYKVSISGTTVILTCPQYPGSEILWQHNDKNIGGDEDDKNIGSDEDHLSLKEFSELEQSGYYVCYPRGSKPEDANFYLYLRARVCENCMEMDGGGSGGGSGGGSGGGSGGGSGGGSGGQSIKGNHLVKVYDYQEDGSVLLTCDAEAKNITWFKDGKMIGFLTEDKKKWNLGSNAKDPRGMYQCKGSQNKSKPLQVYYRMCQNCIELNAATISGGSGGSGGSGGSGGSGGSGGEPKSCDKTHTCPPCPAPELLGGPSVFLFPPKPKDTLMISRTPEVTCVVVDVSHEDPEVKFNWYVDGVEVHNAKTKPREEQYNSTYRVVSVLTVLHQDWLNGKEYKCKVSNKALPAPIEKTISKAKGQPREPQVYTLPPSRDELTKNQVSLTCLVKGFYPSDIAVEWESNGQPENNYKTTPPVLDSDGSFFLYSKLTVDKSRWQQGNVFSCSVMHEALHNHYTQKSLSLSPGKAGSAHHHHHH

- cy/hu B7-H6 (Cyno B7H6-His [1]): 1.5
- Non-specific binding (RU) [2]: 30.6 RU
- Kd (Cyno B7H6-His [3]): 4.6 nM
- binding result (Human B7H1): no binding (tested: 1 µM)
- Kd (Human CD3 E+G HuFc-6xHis): 4.1 nM
- Non-specific binding (RU) [4]: 7.2 RU
B1: B7H6#13/CD3#1 (bispecific antibody, human IgG1, kappa, lambda, L234A L235A)
chain 1: DIQMTQSPSSLSASVGDRVTITCKASQNVGKYVAWYQQKPGKAPKSLIYSASNRYDGVPSRFSGSGSGTDFTLTISSLQPEDFTTYYCQQYISYPLTFGAGTKLEIKRTVAAPSVFIFPPSDEQLKSGTASVVCLLNNFYPREAKVQWKVDNALQSGNSQESVTEQDSKDSTYSLSSTLTLSKADYEKHKVYACEVTHQGLSSPVTKSFNRGECGGGGSEGKSSGSGSESKSTEGKSSGSGSESKSTGGGGSQVQLVQSGAEVKKPGASVKVSCKASGYTFTSYWMNWMKQAPGQGLEWMGGIYLNGDSTDYNEKFKGRVTMTVDTSTSTVYMELSSLRSEDTAVYYCTRRGDYFGDFWGQGTLVTVSSASTKGPSVFPLAPSSKSTSGGTAALGCLVKDYFPEPVTVSWNSGALTSGVHTFPAVLQSSGLYSLSSVVTVPSSSLGTQTYICNVNHKPSNTKVDKRVEPKSCDKTHTCPPCPAPEAAGGPSVFLFPPKPKDTLMISRTPEVTCVVVDVSHEDPEVKFNWYVDGVEVHNAKTKPREEQYNSTYRVVSVLTVLHQDWLNGKEYKCKVSNKALPAPIEKTISKAKGQPREPQVYTLPPSREEMTKNQVSLWCLVKGFYPSDIAVEWESNGQPENNYKTTPPVLDSDGSFFLYSKLTVDKSRWQQGNVFSCSVMHEALHNHYTQKSLSLSPG
chain 2: EAVVTQEPSLTVSPGGTVTLTCRSSTGAVTTSNYANWVQEKPGQLPRGLIGGTNKRAPWVPARFSGSLLGGKAALTLSGAQPEDEAEYFCALWYSNLWVFGGGTKLTVLGQPKAAPSVTLFPPSSEELQANKATLVCLISDFYPGAVKVAWKADGSPVNTGVETTTPSKQSNNKYAASSYLSLTPEQWKSHRSYSCQVTHEGSTVEKTVAPAECSGGGGSEGKSSGSGSESKSTEGKSSGSGSESKSTGGGGSEVQLVESGGGLVQPGGSLKLSCAASGFTFNTYAMNWVRQAPGKGLEWVARIRSKYNNYATYYADSVKDRFTISRDDSKNTAYLQMNNLKTEDTAVYYCVRHGNFGNSYVSWFAYWGQGTLVTVSAASTKGPSVFPLAPSSKSTSGGTAALGCLVKDYFPEPVTVSWNSGALTSGVHTFPAVLQSSGLYSLSSVVTVPSSSLGTQTYICNVNHKPSNTKVDKRVEPKSCDKTHTCPPCPAPEAAGGPSVFLFPPKPKDTLMISRTPEVTCVVVDVSHEDPEVKFNWYVDGVEVHNAKTKPREEQYNSTYRVVSVLTVLHQDWLNGKEYKCKVSNKALPAPIEKTISKAKGQPREPQVYTLPPSREEMTKNQVSLSCAVKGFYPSDIAVEWESNGQPENNYKTTPPVLDSDGSFFLVSKLTVDKSRWQQGNVFSCSVMHEALHNRFTQKSLSLSPG
notes: scFab-Fc heterodimer, one B7H6 chain and one CD3 chain

- cy/hu B7-H6 (Cyno B7H6-His [1]): 4.6
- Non-specific binding (RU) [2]: 48.4 RU
- Kd (Cyno B7H6-His [3]): 4.9 nM
- binding result (Human B7H1): no binding (tested: 1 µM)
- Kd (Human CD3 E+G HuFc-6xHis): 4 nM
- Non-specific binding (RU) [4]: 9.8 RU
B2: B7H6#20/CD3#1 (bispecific antibody, human IgG1, kappa, lambda, L234A L235A)
chain 1: B1 chain 1 with G57A, M289V, N306S, R319K, V320A
chain 2: B1 chain 2
notes: as for B1

- cy/hu B7-H6 (Cyno B7H6-His [1]): 2.3
- Non-specific binding (RU) [2]: 32.8 RU
- Kd (Cyno B7H6-His [3]): 3.3 nM
- binding result (Human B7H1): no binding (tested: 1 µM)
- Kd (Human CD3 E+G HuFc-6xHis): 3.9 nM
- Non-specific binding (RU) [4]: 6.6 RU
B3: B7H6#18/CD3#1 (bispecific antibody, human IgG1, kappa, lambda, L234A L235A)
chain 1: B1 chain 1 with G57A, K290R, N306S
chain 2: B1 chain 2
notes: as for B1

- cy/hu B7-H6 (Cyno B7H6-His [1]): 0.9
- Non-specific binding (RU) [2]: 45.7 RU
- Kd (Cyno B7H6-His [3]): 1.2 nM
- binding result (Human B7H1): no binding (tested: 1 µM)
- Kd (Human CD3 E+G HuFc-6xHis): 5.5 nM
- Non-specific binding (RU) [4]: 8.1 RU
B4: B7H6#23/CD3#1 (bispecific antibody, human IgG1, kappa, lambda, L234A L235A)
chain 1: B1 chain 1 with G57A, T84A, Y87F, M300I, N306S, D308E, R319K
chain 2: B1 chain 2
notes: as for B1

- cy/hu B7-H6 (Cyno B7H6-His [1]): 2.8
- Non-specific binding (RU) [2]: 32.8 RU
- Kd (Cyno B7H6-His [3]): 2.2 nM
- binding result (Human B7H1): no binding (tested: 1 µM)
- Kd (Human CD3 E+G HuFc-6xHis): 3.8 nM
- Non-specific binding (RU) [4]: 7.2 RU
B5: B7H6#15/CD3#1 (bispecific antibody, human IgG1, kappa, lambda, L234A L235A)
chain 1: B1 chain 1 with S283N, K290R, N306S
chain 2: B1 chain 2
notes: as for B1
